According to patent US20240317847A1 (Bayer, published 2024):
Substitutions are numbered along the chain they refer to. Each block holds one binder with its values, some of them ahead of it.

Legend:
murine IL-11 [1] = target: T1, murine IL-11 (mouse, UniProt P47873 22-199); assay: Tri-complex ELISA, mIL-11 + mIL-11Ra-Fc + mgp130-Fc, inhibition of complex formation
T1 construct: Invigate recombinant protein; biotinylated when immobilized in the Di-complex ELISA; also called mIL11; mIL-11
T1 sequence: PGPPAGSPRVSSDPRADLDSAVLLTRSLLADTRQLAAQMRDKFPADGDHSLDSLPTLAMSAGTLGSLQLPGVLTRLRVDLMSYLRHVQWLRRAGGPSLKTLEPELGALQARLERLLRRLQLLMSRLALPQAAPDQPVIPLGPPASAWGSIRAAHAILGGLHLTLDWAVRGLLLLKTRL
Method: In the Tri-complex ELISA format IL-11 antibodies are tested for their ability to inhibit the formation of a complex consisting of murine or human gp130-Fc fusion protein, with murine or human IL-11, and a murine IL11RA-Fc fusion protein. The assay format was adapted according to FIG. 18 (a, b), depending on whether murine or human IL-11 IgG antibodies were tested.
Bispecific antibodies were subjected to the experimental assay procedure described in Example 19 and IC50 [M], respectively efficacy (%) were calculated accordingly.

[2] = target: T2, human IL-11 (Invigate, e.g., lot #C121021-19) (human, UniProt P20809 22-199); assay: SPR, Biacore T200, 25 C; antibody captured via anti-mouse Fc, IL-11 as analyte, 1:1 Langmuir fit
T2 construct: Bought protein; also called hIL-11; hIL11
T2 sequence: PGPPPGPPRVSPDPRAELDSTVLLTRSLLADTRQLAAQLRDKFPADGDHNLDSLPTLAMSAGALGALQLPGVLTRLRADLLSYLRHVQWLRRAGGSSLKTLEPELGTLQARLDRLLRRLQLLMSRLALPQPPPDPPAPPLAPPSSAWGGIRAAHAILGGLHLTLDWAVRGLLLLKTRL
Method: (§1) Antibodies were captured via anti-mouse Fc IgGs (“Mouse antibody capture kit, Order No. BR100383, Cytiva) covalently amine coupled to a Series S CM5 sensor chip (Cytiva). The amine coupling was carried out according to the manufacturer's instructions using 1-ethyl-3-(3-dimethylaminopropyl) carbodiimide hydrochloride (EDC), N-hydroxysuccinimide (NHS) and ethanolamine HCl, pH 8.5 (“Amine Coupling Kit” BR-1000-50, Cytiva.). Human IL-11 (Invigate, e.g., lot #C121021-19), and murine IL-11 (Invigate, e.g., lot #C210819-09) were used as analytes. […] Based on that experiment an IL-11 concentration range was chosen to optimally determine kinetics and affinity of anti-IL-11 antibodies in multicycle kinetics mode. The sensor surface was regenerated with glycine pH 1.7 after each antigen injection. Obtained sensorgrams were double referenced (subtraction of reference flow cell signal and buffer injection) and were fitted to a 1:1 Langmuir binding model to derive kinetic data using the Biacore T200 Evaluation software or the Biacore Insight software.

[3] = target: T3, murine IL-11 (Invigate, e.g., lot #C210819-09) (mouse, UniProt P47873 22-199); assay: as above
T3 construct: Bought protein; biotinylated where captured on streptavidin plates; also called mIL-11; mIL11
T3 sequence: T1 sequence
Method: as §1

murine IL-11 [4] = target: T1, murine IL-11; assay: SPR (Biacore), 25 C, antibody captured via anti-Fc, IL-11 as analyte, determined in steady state
human IL-11 [5] = target: T4, human IL-11 (human, UniProt P20809 22-199); assay: Tri-complex ELISA, hIL-11 + mIL-11Ra-Fc + hgp130-Fc, inhibition of complex formation; Tri-complex ELISA (IL-11/IL-11Ra/gp130 formation), efficacy only 25%
T4 construct: Invigate recombinant protein; biotinylated when immobilized in the Di-complex ELISA; also called hIL11; hIL-11
T4 sequence: T2 sequence
Method: In a first step, 25 μl of goat anti human IgG (Sigma, #12136), diluted 1:1000 in coating buffer (Candor, #121125) was coated on the plate at 4° C. overnight. Next day, the plate was washed one time with 50 μl PBST and then blocked with 50 μl SmartBlock (Candor, #113125) for one hour at room temperature (RT). […] After three additional washes of the coated and blocked microtiter plate with PBS-T, 25 μl of each mixture were added and the assay plate was incubated for one hour at room temperature. After three additional washes, anti-mouse-gp130 biotinylated antibody (R&D, #BAF468) or anti-human gp130 biotinylated antibody (R&D, #BAF228), both 1:1000 in 10% SmartBlock PBS-T, was added and incubated for 1 hour at RT. […] Then, the fluorescence was measured with a plate reader at 535/595 nm. […] Efficacy was calculated as [(signal measured at lowest antibody concentration−signal measured at the highest antibody concentration)×100] divided by (signal measured at lowest antibody concentration−signal measured in the absence of antibody at an IL11 concentration of 8.2E-11 [M]).
IgG converted antibodies were subjected to the experimental assay procedure described in Example 19 and IC50 [M], respectively efficacy (%) were calculated accordingly.

murine IL-11 [6] = target: T1, murine IL-11; assay: Di-complex ELISA, murine IL11RA-Fc binding to immobilized mIL-11, competition
Method: In the Di-complex ELISA format anti IL-11 antibodies are tested for the ability to interfere with the formation of complexes consisting of immobilized murine IL-11 (Invigate, e.g., lot #C210819-09) or human IL-11 (Invigate, e.g., lot #C121021-19), and murine IL11RA-Fc fusion proteins or canine IL11RA-human-Fc fusion protein (FIG. 17a, b).
Bispecific antibodies were subjected to the experimental assay procedure described in Example 18 and IC50 [M], respectively efficacy (%) were calculated accordingly.

human IL-11 [7] = target: T5, human IL-11 (human, UniProt P20809 22-199); assay: cell-based or functional assay
T5 sequence: T2 sequence

murine IL-11 [8] = target: T6, murine IL-11 (mouse, UniProt P47873 22-199); assay: cell-based or functional assay
T6 sequence: T1 sequence

- Efficacy (%) (murine IL-11 [1]): 98.5%
- IC50 (murine IL-11 [1]): 0.17 nM
B1: TPP-29603 (bispecific antibody, IgG1)
chain 1: QVQLVESGGGVVQPGRSLRLSCAASGFTFSHYDMHWVRQAPGKGLEWVAVISYHGSVKFYADSVKGRFTISRDNSKNTLYLQMNSLRAEDTAVYYCARTPGFHFDYWGQGTLVTVSSGGGGSGGGGSGGGGSQSVLTQPPSASGTPGQRVTISCSGSSSNIGSNYVSWYQQLPGTAPKLLIYYDDLRPSGVPDRFSGSKSGTSASLAISGLRSEDEADYYCSAWDDSLSGVVFGGGTKLTVLGGGGSGGGGSGGGGSGVECPPCPAPPVAGPSVFIFPPKPKDVLTITLTPKVTCVVVDISKDDPEVQFSWFVDDVEVHTAQTQPREEQFNSTFRSVSELPIMHQDWLNGKEFKCRVNSAAFPAPIEKTISKTKGRPKAPQVYTIPPCKEQMAKDKVSLWCMITDFFPEDITVEWQWNGQPAENYKNTQPIMDTDGSYFVYSKLNVQKSNWEAGNTFTCSVLHEGLHNHHTEKSLSHSPGK
chain 2: EVQLLESGGGLVQPGGSLRLSCAASGFTFSSYGMHWVRQAPGKGLEWVAVISYDGSYKYYADSVKGRFTISRDNSKNTLYLQMNSLRAEDTAVYYCAAGVPDYWGQGTLVTVSSGGGGSGGGGSGGGGSQSVLTQPPSASGTPGQRVTISCSGSSSNIGSDYDVHWYQQLPGTAPKLLIYSNEERPSGVPDRFSGSKSGTSASLAISGLRSEDEADYYCSAWDSSLSGPVFGGGTKLTVLGGGGSGGGGSGGGGSGVECPPCPAPPVAGPSVFIFPPKPKDVLTITLTPKVTCVVVDISKDDPEVQFSWFVDDVEVHTAQTQPREEQFNSTFRSVSELPIMHQDWLNGKEFKCRVNSAAFPAPIEKTISKTKGRPKAPQVCTIPPPKEQMAKDKVSLSCAITDFFPEDITVEWQWNGQPAENYKNTQPIMDTDGSYFVVSKLNVQKSNWEAGNTFTCSVLHEGLHNHHTEKSLSHSPGK
notes: scFv-kih-mIgG1; bispecific comprising CDRs of TPP-29528 and TPP-29519

- Kd [2]: 53 nM
- Kd [3]: 42 nM
B2: TPP-18087 (antibody, mouse IgG1, V domains shown)
VH: EVQLLESGGGLVQPGGSLRLSCAASGFTFSHYDMNWLRQAPGKGLEWVGVISYDGSNKFYADFVKGRFTISRDNSKNTLYLQMNSLRAEDTAVYYCARTPGSHFDYWGQGTLVTVSS
VL: QSVLTQPPSASGTPGQRVTISCSGSSSNIGNNAVNWYQQLPGTAPKLLIYYDDLLPSGVPDRFSGSKSGTSASLAISGLRSEDEADYYCSAWDDSLNGVVFGGGTKLTVLG
notes: mIgG1, Lambda

- Kd [2]: 11 nM
- Kd [3]: 9 nM
B3: TPP-19528 (antibody, mouse IgG1, V domains shown)
VH: EVQLLESGGGLVQPGGSLRLSCAASGFTFSIYAMSWVRQAPGKGLEWVSSISDTGDRTYYADSVKGRFTISRDNSKNTLYLQMNSLRAEDTAVYYCARSNWGSLDYWGQGTLVTVSS
VL: B2 VL with N31S, A33Y, N35Y, S90A, N97S, V99R
notes: mIgG1, Lambda

- Kd (murine IL-11 [4]): 33 nM
- IC50 (human IL-11 [5]): 1.5 nM
B4: TPP-18087 (antibody, mouse IgG1, V domains shown)
VH: B2 VH
VL: B2 VL
notes: mIgG1, Lambda

- IC50 (murine IL-11 [6]): 1.4 nM
- Efficacy (%) (murine IL-11 [1]): 104%
- IC50 (murine IL-11 [1]): 0.0622 nM
B5: TPP-29697 (bispecific antibody, IgG1)
chain 1: QVQLVESGGGVVQPGRSLRLSCAASGFTFSHYDMHWVRQAPGKGLEWVAVISYHGSVKFYADSVKGRFTISRDNSKNTLYLQMNSLRAEDTAVYYCARTPGFHFDYWGQGTLVTVSSGGGGSGGGGSGGGGSQSVLTQPPSASGTPGQRVTISCSGSSSNIGSNYVSWYQQLPGTAPKLLIYYDDLRPSGVPDRFSGSKSGTSASLAISGLRSEDEADYYCSAWDDSLSGVVFGGGTKLTVLGGGGSGGGGSGGGGSGVECPPCPAPPVAGPSVFLFPPKPKDTLMISRTPEVTCVVVGVSHEDPEVKFNWYVDGVEVHNAKTKPREEQYNSTYRVVSVLTVLHQDWLNGKEYKCKVSNKQLPSPIEKTISKAKGQPREPQVYTLPPCRDELTKNQVSLWCLVKGFYPSDIAVEWESNGQPENNYKTTPPVLDSDGSFFLYSKLTVDKSRWQQGNVFSCSVMHEALHNHYTQKSLSLSPGK
chain 2: EVQLLESGGGLVQPGGSLRLSCAASGFTFSSYGMHWVRQAPGKGLEWVAVISYDGSYKYYADSVKGRFTISRDNSKNTLYLQMNSLRAEDTAVYYCAAGVPDYWGQGTLVTVSSGGGGSGGGGSGGGGSQSVLTQPPSASGTPGQRVTISCSGSSSNIGSDYDVHWYQQLPGTAPKLLIYSNEERPSGVPDRFSGSKSGTSASLAISGLRSEDEADYYCSAWDSSLSGPVFGGGTKLTVLGGGGSGGGGSGGGGSGVECPPCPAPPVAGPSVFLFPPKPKDTLMISRTPEVTCVVVGVSHEDPEVKFNWYVDGVEVHNAKTKPREEQYNSTYRVVSVLTVLHQDWLNGKEYKCKVSNKQLPSPIEKTISKAKGQPREPQVCTLPPSRDELTKNQVSLSCAVKGFYPSDIAVEWESNGQPENNYKTTPPVLDSDGSFFLVSKLTVDKSRWQQGNVFSCSVMHEALHNHYTQKSLSLSPGK
notes: scFv-kih-hIgG1 with Fc-silencing mutations; bispecific comprising CDRs of TPP-29528 and TPP-29519

- RGA Efficacy (%) (human IL-11 [7]): 60.3%
- RGA IC50 (human IL-11 [7]): 6.7 nM
- RGA Efficacy (%) (murine IL-11 [8]): 93.1%
- RGA IC50 (murine IL-11 [8]): 1 nM
B6: TPP-18068 (antibody, mouse IgG1)
heavy: EVQLLESGGGLVQPGGSLRLSCAASGFTFSSYGMHWVRQAPGKGLEWVSVISYDGSYKYYADSVKGRFTISRDNSKNTLYLQMNSLRAEDTAVYYCAAGVPDYWGQGTLVTVSSAKTTPPSVYPLAPGSAAQTNSMVTLGCLVKGYFPEPVTVTWNSGSLSSGVHTFPAVLQSDLYTLSSSVTVPSSTWPSETVTCNVAHPASSTKVDKKIVPRDCGCKPCICTVPEVSSVFIFPPKPKDVLTITLTPKVTCVVVDISKDDPEVQFSWFVDDVEVHTAQTQPREEQFNSTFRSVSELPIMHQDWLNGKEFKCRVNSAAFPAPIEKTISKTKGRPKAPQVYTIPPPKEQMAKDKVSLTCMITDFFPEDITVEWQWNGQPAENYKNTQPIMDTDGSYFVYSKLNVQKSNWEAGNTFTCSVLHEGLHNHHTEKSLSHSPGK
light: QSVLTQPPSASGTPGQRVTISCTGSSSNIGAGYDVHWYQQLPGTAPKLLIYSNNERPSGVPDRFSGSKSGTSASLAISGLRSEDEADYYCAAWDDSLNGPVFGGGTKLTVLGQPKSSPSVTLFPPSSEELETNKATLVCTITDFYPGVVTVDWKVDGTPVTQGMETTQPSKQSNNKYMASSYLTLTARAWERHSSYSCQVTHEGHTVEKSLSRADCS
notes: mIgG1, Lambda
